Columns and labels:
[1] = biological target: T1, SEZ6L-Fc protein (human, UniProt Q9BYH1 29-958, limits assumed); test: ELISA, coated Fc fusion protein at 1 ug/mL
T1 construct: The construct is not described beyond its name; also called SEZ6L protein; Human SEZ6L1; not shown: Fc
T1 sequence (looked up): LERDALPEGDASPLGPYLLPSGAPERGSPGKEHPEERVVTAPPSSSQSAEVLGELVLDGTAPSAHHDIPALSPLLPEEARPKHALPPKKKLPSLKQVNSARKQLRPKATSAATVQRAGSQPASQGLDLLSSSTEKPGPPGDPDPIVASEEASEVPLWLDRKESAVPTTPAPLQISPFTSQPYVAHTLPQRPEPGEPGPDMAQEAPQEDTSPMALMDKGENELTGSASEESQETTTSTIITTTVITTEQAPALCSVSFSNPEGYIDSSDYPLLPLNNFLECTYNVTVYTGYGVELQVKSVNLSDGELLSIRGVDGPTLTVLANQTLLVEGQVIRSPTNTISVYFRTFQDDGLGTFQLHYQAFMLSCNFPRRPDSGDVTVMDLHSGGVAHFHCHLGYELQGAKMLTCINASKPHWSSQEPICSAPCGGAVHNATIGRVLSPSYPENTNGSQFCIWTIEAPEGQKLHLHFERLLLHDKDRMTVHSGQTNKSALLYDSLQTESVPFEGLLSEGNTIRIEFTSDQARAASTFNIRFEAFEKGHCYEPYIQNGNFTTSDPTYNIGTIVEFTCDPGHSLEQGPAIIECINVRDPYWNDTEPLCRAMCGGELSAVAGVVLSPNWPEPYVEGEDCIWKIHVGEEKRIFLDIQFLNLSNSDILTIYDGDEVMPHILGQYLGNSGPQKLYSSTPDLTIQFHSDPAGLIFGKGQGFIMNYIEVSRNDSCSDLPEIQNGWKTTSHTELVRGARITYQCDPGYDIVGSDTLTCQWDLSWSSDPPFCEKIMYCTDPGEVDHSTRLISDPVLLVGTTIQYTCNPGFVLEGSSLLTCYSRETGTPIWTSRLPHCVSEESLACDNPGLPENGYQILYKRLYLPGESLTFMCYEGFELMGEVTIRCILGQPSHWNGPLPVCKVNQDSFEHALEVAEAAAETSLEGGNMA

[2] = biological target: T2, SEZ6L2-Fc (human, UniProt Q6UXD5 28-844, limits assumed); test: ELISA, coated Fc fusion protein at 1 ug/mL
T2 construct: The construct is not described beyond its name; also called SEZ6L2 protein; Human SEZ6L2; not shown: Fc
T2 sequence (Q6UXD5 28-844 limits assumed): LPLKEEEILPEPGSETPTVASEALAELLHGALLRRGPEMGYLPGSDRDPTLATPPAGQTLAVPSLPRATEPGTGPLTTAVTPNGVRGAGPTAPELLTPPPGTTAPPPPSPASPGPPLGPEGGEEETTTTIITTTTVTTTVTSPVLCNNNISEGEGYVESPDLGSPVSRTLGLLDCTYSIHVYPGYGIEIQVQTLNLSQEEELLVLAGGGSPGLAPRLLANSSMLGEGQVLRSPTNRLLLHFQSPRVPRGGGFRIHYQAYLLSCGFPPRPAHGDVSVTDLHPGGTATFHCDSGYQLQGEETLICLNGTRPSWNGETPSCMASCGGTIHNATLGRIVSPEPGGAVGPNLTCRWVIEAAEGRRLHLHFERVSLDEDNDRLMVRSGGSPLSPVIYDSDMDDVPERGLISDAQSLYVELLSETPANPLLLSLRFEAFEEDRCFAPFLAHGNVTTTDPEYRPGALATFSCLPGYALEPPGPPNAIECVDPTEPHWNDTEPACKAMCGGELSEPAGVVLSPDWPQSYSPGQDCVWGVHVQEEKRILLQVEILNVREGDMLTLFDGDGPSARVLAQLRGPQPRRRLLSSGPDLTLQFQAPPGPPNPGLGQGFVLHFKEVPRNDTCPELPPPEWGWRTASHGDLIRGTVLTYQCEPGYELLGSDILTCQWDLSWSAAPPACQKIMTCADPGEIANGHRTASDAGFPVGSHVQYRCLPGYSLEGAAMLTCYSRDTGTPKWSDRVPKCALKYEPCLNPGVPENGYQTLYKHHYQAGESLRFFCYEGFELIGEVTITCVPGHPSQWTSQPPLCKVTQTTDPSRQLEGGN

[3] = biological target: T3, cynomolgus monkey SEZ6 expressed on stably transfected CHO-K1 cells (cynomolgus monkey, UniProt Q53EL9 20-994 (human entry)); test: flow cytometry on CHO-K1 cells expressing cynomolgus monkey SEZ6
T3 construct: also called CHO-cynoSEZ6; monkey SEZ6 on the cell membrane
T3 chain: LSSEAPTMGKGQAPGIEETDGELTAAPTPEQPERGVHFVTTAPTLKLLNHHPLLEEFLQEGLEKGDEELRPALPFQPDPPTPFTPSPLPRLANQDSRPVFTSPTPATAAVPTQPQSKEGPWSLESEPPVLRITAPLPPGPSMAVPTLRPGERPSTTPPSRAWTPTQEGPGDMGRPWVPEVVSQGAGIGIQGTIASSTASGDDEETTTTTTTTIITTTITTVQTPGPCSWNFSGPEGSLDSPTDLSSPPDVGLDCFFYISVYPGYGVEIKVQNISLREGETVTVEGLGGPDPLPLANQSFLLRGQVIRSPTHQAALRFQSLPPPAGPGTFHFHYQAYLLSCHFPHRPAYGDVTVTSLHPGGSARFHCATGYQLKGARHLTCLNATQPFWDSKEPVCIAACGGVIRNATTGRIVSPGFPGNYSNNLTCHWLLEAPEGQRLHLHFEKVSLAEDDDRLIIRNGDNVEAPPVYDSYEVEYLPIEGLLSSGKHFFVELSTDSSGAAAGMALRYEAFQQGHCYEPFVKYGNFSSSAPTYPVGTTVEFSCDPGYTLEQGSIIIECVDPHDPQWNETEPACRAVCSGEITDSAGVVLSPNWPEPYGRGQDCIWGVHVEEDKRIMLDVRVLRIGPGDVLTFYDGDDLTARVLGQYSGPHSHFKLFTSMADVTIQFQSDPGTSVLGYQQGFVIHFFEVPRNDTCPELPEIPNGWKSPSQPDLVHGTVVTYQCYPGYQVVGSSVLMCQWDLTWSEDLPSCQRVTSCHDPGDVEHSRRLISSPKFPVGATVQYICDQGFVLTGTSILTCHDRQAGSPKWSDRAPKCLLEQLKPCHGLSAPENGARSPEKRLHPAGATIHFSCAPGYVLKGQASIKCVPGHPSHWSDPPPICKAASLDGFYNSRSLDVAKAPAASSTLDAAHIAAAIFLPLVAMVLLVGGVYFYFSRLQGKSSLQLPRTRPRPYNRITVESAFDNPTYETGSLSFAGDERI

B1: PR3178 (antibody, human IgG1, kappa, V domains shown)
VH: QVQLVQSGAEVKKPGASVKVSCKASGYTFTDYEMHWVRQAPGQGLEWMGGIDPESDNTVYNQKFKGRVTLTEDTSTSTAYMELRSLRSEDTAVYYCTRGDWYFDVWGQGTTVTVSS
VL: DIVMTQSPDSLAVSLGERATINCKSSQSLLNSRTRENYLAWYQQKPGQPPKLLIYWASTRESGVPDRFSGSGSGTDFTLTISSLQAEDVAVYYCGQSYNLFTFGQGTKLEIKR
notes: Humanized, human IgG1, kappa; also called humanized antibody of cAb3009
- binding result [1]: no binding (tested: 10 nM)
- binding result [2]: no binding (tested: 10 nM)

B2: hSC200 (hSC17.200) (antibody, human IgG1, kappa, V domains shown)
VH: EVQLVQSGAEVKKPGESLKISCKGSGYSFTSSWINWVRQMPGKGLEWMGRIYPGEGDTNYNGNFEGQVTISADKSISTAYLQWSSLKASDTAMYYCTRGLVMDYWGQGTLVTVSS
VL: EIVLTQSPATLSLSPGERATLSCRASQSVDYNGISYMHWYQQKPGQAPRLLIYAASNVQSGIPARFSGSGSGTDFTLTISSLEPEDFAVYYCQQSIEDPPTFGGGTKVEIKR
notes: also called control molecule; control antibody
- EC50 [3]: 0.26 nM

Source: patent publication EP4714971A1 (Shanghai Hansoh Biomedical Co., Ltd., dated 2024)
